The record followed here is the supplement of paper PMC11246515.

The series is described as follows: total protein half-life in vivo (active degradation + dilution); higher = more stable protein.
Setting [1] is: E. coli NCM3722 delta-clpP delta-lon delta-hslV, growth: N-lim chemostat, doubling time 6 h.
[2] abbreviates: E. coli NCM3722 delta-clpP, growth: N-lim chemostat, doubling time 6 h.
Setting [3] is: E. coli NCM3722 delta-hslV, growth: N-lim chemostat, doubling time 6 h.
Setting [4] is: wild type E. coli NCM3722, growth: C-lim chemostat, doubling time 3 h.
Setting [5] is: wild type E. coli NCM3722, growth: C-lim chemostat, doubling time 12 h.
The mark [6] stands for this setting: wild type E. coli NCM3722, growth: N-lim chemostat, doubling time 6 h.
The mark [7] stands for this setting: wild type E. coli NCM3722, growth: N-lim chemostat, doubling time 12 h.
Setting [8] is: wild type E. coli NCM3722, growth: P-lim chemostat, doubling time 6 h.
The mark [9] stands for this setting: wild type E. coli NCM3722, growth: P-lim chemostat, doubling time 12 h.
[10] abbreviates: E. coli NCM3722 delta-lon, growth: N-lim chemostat, doubling time 6 h.
Where [11] appears, read: E. coli NCM3722 delta-smpB, growth: N-lim chemostat, doubling time 6 h.
Setting [12] is: wild type E. coli NCM3722, growth: C-lim chemostat, doubling time 6 h.

± gives the standard deviation of the averaged measurements.

As to “MNYSLKQLKVFVTVAQEKSFSRAGERIGLSQSAVSHSVKELENHTGVRLLDRTTREVVLTDAGQQLALRLERLLDELNSTLRDTGRMGQQLSGKVRVAASQTISAHLIPQCIAESHRRYPDIQFVLHDRPQQWVMESIRQGDVDFGIVIDPGPVGDLQCEAILSEPFFLLCHRDSALAVEDYVPWQALQGAKLVLQDYASGSRPLIDAALARNGIQANIVQEIGHPATLFPMVAAGIGISILPALALPLPEGSPLVVKRITPVVERQLMLVRRKNRSLSTAAEALWDVVRDQGNALMAGREGDPLYQI [P0ACR7]”, the “total protein half-life in vivo” value came out at 6.06 ± 0.61 h under setting [1]; 4.84 ± 0.076 h under setting [2]; 5.19 ± 0.28 h under setting [3]; 2.84 h under setting [4]; 12.5 ± 1.6 h under setting [5]; 4.85 ± 0.15 h under setting [6]. The “total protein half-life in vivo” value was 9.2 ± 0.89 h under setting [7], 3.88 h under setting [8] and 6.14 ± 1.9 h under setting [9].
For the sequence “MSAGRLNKKSLGIVMLLSVGLLLAGCSGSKSSDTGTYSGSVYTVKRGDTLYRISRTTGTSVKELARLNGISPPYTIEVGQKLKLGGAKSSSITRKSTAKSTTKTASVTPSSAVPKSSWPPVGQRCWLWPTTGKVIMPYSTADGGNKGIDISAPRGTPIYAAGAGKVVYVGNQLRGYGNLIMIKHSEDYITAYAHNDTMLVNNGQSVKAGQKIATMGSTDAASVRLHFQIRYRATAIDPLRYLPPQGSKPKC”, the “total protein half-life in vivo” value by setting is: under setting [2], 6.06 ± 0.3 h; under setting [3], 6.34 ± 0.85 h; under setting [10], 6.04 ± 0.44 h; under setting [11], 5.693 ± 0.011 h; under setting [4], 3.22 ± 0.21 h; under setting [12], 5.4794 ± 0.0017 h. Moreover, the “total protein half-life in vivo” value is 9.64 ± 0.25 h under setting [5]; 5.64 ± 0.52 h under setting [6]; 10.8 ± 0.38 h under setting [7]; 6.32 ± 0.37 h under setting [8]; 13.3 ± 0.95 h under setting [9].
For “MEPLREIRNRLLNGWQLSKMHTFEVAARHQSFALAAEELSLSPSAVSHRINQLEEELGIQLFVRSHRKVELTHEGKRVYWALKSSLDTLNQEILDIKNQELSGTLTLYSRPSIAQCWLVPALGDFTRRYPSISLTVLTGNDNVNLQRAGIDLAIYFDDAPSAQLTHHFLMDEEILPVCSPEYAQRHALTNTVINLCHCTLLHDRQAWSNDSGTDEWHSWAQHYAVNLPTSSGIGFDRSDLAVIAAMNHIGVAMGRKRLVQKRLASGELVAPFGDMTVKCHQHYYITTLPGRQWPKIEAFIIWLREQVKTTS”, the “total protein half-life in vivo” value was found to be 5.88 h under setting [1]; 5.73 ± 0.3 h under setting [2]; 6.65 ± 0.47 h under setting [3]; 7.48 ± 0.075 h under setting [10]; 6.21 ± 1.6 h under setting [11]; 2.74 h under setting [4]. In addition, the “total protein half-life in vivo” value amounted to 11 ± 1.1 h under setting [5] and 5.13 h under setting [6].
Turning to “MSQLVYFSSSSENTQRFIERLGLPAVRIPLNERERIQVDEPYILIVPSYGGGGTAGAVPRQVIRFLNDEHNRALLRGVIASGNRNFGEAYGRAGDVIARKCGVPWLYRFELMGTQSDIENVRKGVTEFWQRQPQNA [P0A772]”, the “total protein half-life in vivo” value under setting [1] was found to be 4.46 ± 0.33 h.
For “MLSIFKPAPHKARLPAAEIDPTYRRLRWQIFLGIFFGYAAYYLVRKNFALAMPYLVEQGFSRGDLGFALSGISIAYGFSKFIMGSVSDRSNPRVFLPAGLILAAAVMLFMGFVPWATSSIAVMFVLLFLCGWFQGMGWPPCGRTMVHWWSQKERGGIVSVWNCAHNVGGGIPPLLFLLGMAWFNDWHAALYMPAFCAILVALFAFAMMRDTPQSCGLPPIEEYKNDYPDDYNEKAEQELTAKQIFMQYVLPNKLLWYIAIANVFVYLLRYGILDWSPTYLKEVKHFALDKSSWAYFLYEYAGIPGTLLCGWMSDKVFRGNRGATGVFFMTLVTIATIVYWMNPAGNPTVDMICMIVIGFLIYGPVMLIGLHALELAPKKAAGTAAGFTGLFGYLGGSVAASAIVGYTVDFFGWDGGFMVMIGGSILAVILLIVVMIGEKRRHEQLLQERNGG”, the “total protein half-life in vivo” value under setting [12] worked out at 6.02 ± 0.41 h and the “total protein half-life in vivo” value under setting [5] stood at 11.8 ± 1.2 h.
With “MKPTTLLLIFTFFAMPGIVYAESPFSSLQSAKEKTTVLQDLRKICTPQASLSDEAWEKLMLSDENNKQHIREAIVAMERNNQSNYWEALGKVECPDM [Q2M7X4]”, the “total protein half-life in vivo” value under setting [1] stood at 4.53 h.
On to “MLNQLDNLTERVRGSNKLVDRWLHVRKHLLVAYYNLVGIKPGKESYMRLNEKALDDFCQSLVDYLSAGHFSIYERILHKLEGNGQLARAAKIWPQLEANTQQIMDYYDSSLETAIDHDNYLEFQQVLSDIGEALEARFVLEDKLILLVLDAARVKHPA [P0AFX4]”, for which the “total protein half-life in vivo” value was found to be 6.38 h under setting [2]; 2.42 ± 0.21 h under setting [3]; 2.8 h under setting [10]; 2.38 ± 0.34 h under setting [11]; 3.06 ± 0.11 h under setting [12]; 5.14 ± 0.081 h under setting [5]. Moreover, the “total protein half-life in vivo” value is, setting by setting: under setting [6], 2.51 ± 0.29 h; under setting [7], 3.09 ± 0.19 h; under setting [8], 3.51 h; under setting [9], 5.62 ± 0.091 h.
In the case of “MNNIQIRNYQPGDFQQLCAIFIRAVTMTASQHYSPQQISAWAQIDESRWKEKLAKSQVWVAIINAQPVGFISRIEHYIDMLFVDPEYTRRGVASALLKPLIKSESELTVDASITAKPFFERYGFQTVKQQRVECRGAWFTNFYMRYKPQH”, the “total protein half-life in vivo” value is 4.81 h under setting [1]; 3.71 ± 0.28 h under setting [2]; 3.82 h under setting [3]; 2.9 h under setting [11]; greater than 8 h under setting [12]; greater than 8 h under setting [6]. Moreover, under setting [9], the “total protein half-life in vivo” value turned out to be 9.48 ± 0.24 h.
“MSDNAQLTGLCDRFRGFYPVVIDVETAGFNAKTDALLEIAAITLKMDEQGWLMPDTTLHFHVEPFVGANLQPEALAFNGIDPNDPDRGAVSEYEALHEIFKVVRKGIKASGCNRAIMVAHNANFDHSFMMAAAERASLKRNPFHPFATFDTAALAGLALGQTVLSKACQTAGMDFDSTQAHSALYDTERTAVLFCEIVNRWKRLGGWPLSAAEEV”: the “total protein half-life in vivo” value was determined as 5.4962 ± 0.0014 h under setting [1]; 5.43 ± 0.51 h under setting [2]; 5.13 h under setting [3]; 6.1 h under setting [10]; 2.54 h under setting [4]; 5.95 ± 0.48 h under setting [12]. Moreover, the “total protein half-life in vivo” value reads like this: under setting [6], 5.89 h; under setting [7], 8.59 h; under setting [8], 5.17 h; under setting [9], 12 ± 0.56 h.
Take “MFQLSVQDIHPGEKAGDKEEAIRQVAAALVQAGNVAEGYVNGMLAREQQTSTFLGNGIAIPHGTTDTRDQVLKTGVQVFQFPEGVTWGDGQVAYVAIGIAASSDEHLGLLRQLTHVLSDDSVAEQLKSATTAEELRALLMGEKQSEQLKLDNEMLTLDIVASDLLTLQALNAARLKEAGAVDATFVTKAINEQPLNLGQGIWLSDSAEGNLRSAIAVSRAANAFDVDGETAAMLVSVAMNDDQPIAVLKRLADLLLDNKADRLLKADAATLLALLTSDDAPTDDVLSAEFVVRNEHGLHARPGTMLVNTIKQFNSDITVTNLDGTGKPANGRSLMKVVALGVKKGHRLRFTAQGADAEQALKAIGDAIAAGLGEGA”: the “total protein half-life in vivo” value is, setting by setting: under setting [1], 6.229 ± 0.029 h; under setting [2], 5.64 ± 0.69 h; under setting [3], 5.85 ± 0.086 h; under setting [10], 6.16 ± 0.26 h; under setting [11], 5.94 ± 0.085 h; under setting [4], 2.96 ± 0.13 h. For the same sequence, the “total protein half-life in vivo” value is 5.74 ± 0.56 h under setting [12]; 12.3 ± 1.2 h under setting [5]; 5.99 ± 0.57 h under setting [6]; 5.71 ± 0.078 h under setting [8]; 11.97 ± 0.033 h under setting [9].
